From publication PMC9482650, “Quantitative fragmentomics allow affinity mapping of interactomes” (Nature Communications, 2022)

T1: APBA1_1, Q02410
T1 sequence (Q02410 651-752, limits assumed, looked up): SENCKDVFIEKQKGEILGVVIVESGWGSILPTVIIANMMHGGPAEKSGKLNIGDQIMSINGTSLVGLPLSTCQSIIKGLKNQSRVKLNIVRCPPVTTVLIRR

T2: DVL3, Q92997
T2 sequence (Q92997 244-331, limits assumed, looked up): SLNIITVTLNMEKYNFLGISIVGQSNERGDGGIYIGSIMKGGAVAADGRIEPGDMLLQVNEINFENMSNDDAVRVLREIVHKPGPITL

T3: GRIP1_2, Q9Y3R0
T3 sequence (Q9Y3R0 145-248, limits assumed, looked up): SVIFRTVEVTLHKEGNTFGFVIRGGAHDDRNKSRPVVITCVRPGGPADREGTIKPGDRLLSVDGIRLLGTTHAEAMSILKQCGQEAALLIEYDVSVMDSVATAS

T4: HTRA4, P83105
T4 sequence (P83105 378-476, limits assumed, looked up): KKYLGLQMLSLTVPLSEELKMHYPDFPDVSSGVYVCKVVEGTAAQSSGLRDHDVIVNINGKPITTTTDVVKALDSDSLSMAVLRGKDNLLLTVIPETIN

T5: LIN7C, Q9NUP9
T5 sequence (Q9NUP9 88-185, limits assumed, looked up): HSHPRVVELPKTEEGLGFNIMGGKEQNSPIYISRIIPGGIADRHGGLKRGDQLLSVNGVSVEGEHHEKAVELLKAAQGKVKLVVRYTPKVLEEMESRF

T6: RAPGEF6, Q8TEU7
T6 sequence (Q8TEU7 525-625, limits assumed, looked up): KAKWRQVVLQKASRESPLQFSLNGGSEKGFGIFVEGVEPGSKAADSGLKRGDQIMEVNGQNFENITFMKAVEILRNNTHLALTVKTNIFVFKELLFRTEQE

T7: RHPN1, Q8TCX5
T7 sequence (Q8TCX5 508-602, limits assumed, looked up): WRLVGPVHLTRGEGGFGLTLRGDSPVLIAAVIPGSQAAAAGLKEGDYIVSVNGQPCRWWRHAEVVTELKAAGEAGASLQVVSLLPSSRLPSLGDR

T8: SNTA1, Q13424
T8 sequence (Q13424 82-180, limits assumed, looked up): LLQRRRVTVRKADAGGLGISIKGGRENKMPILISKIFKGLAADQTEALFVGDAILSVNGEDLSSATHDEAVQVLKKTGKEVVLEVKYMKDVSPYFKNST

T9: SNTB1, Q13884
T9 sequence (Q13884 107-205, limits assumed, looked up): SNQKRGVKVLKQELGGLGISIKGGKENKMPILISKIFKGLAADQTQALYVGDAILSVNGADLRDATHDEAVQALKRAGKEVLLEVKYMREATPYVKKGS

T10: SNTG1, Q9NSN8
T10 sequence (Q9NSN8 52-150, limits assumed, looked up): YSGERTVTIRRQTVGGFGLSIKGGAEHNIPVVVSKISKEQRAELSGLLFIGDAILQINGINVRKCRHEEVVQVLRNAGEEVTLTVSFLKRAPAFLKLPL

T11: TX1BP3, O14907
T11 sequence (O14907 10-122, limits assumed, looked up): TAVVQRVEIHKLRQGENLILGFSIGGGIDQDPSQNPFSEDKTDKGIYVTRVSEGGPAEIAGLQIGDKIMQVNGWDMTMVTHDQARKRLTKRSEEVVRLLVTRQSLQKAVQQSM


Tests used:
Test in all cases: holdup assay
Design in all cases: key: below the threshold = too weak to quantify, mostly under pKd 3.1 to 4
Conditions in all cases: plain residues with an end cap or a label only (N-terminal biotin on a linker: ttds)
APBA1_1, Q02410 = target: T1, APBA1_1, Q02410
ARHGEF12, Q9NZN5-2 = target: ARHGEF12, Q9NZN5-2
Sequence of ARHGEF12, Q9NZN5-2 (Q9NZN5 other isoform, or with tags, fused parts or gaps): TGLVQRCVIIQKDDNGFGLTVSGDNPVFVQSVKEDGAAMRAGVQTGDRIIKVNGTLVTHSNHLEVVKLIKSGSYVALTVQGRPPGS

DLG1_2, Q12959 = target: DLG1_2, Q12959
Sequence of DLG1_2, Q12959 (Q12959 314-412): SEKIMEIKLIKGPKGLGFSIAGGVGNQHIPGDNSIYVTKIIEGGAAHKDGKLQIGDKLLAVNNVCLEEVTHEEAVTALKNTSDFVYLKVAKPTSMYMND

DLG2_3, Q15700 = target: DLG2_3, Q15700
DLG5_1, Q8TDM6 = target: DLG5_1, Q8TDM6
Sequence of DLG5_1, Q8TDM6 (Q8TDM6 617-713): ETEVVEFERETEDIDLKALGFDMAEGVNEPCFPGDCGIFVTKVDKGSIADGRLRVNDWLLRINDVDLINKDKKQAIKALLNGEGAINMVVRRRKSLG

DVL3, Q92997 = target: T2, DVL3, Q92997
GRIP1_2, Q9Y3R0 = target: T3, GRIP1_2, Q9Y3R0
GRIP2_3, Q9C0E4 = target: GRIP2_3, Q9C0E4
Sequence of GRIP2_3, Q9C0E4 (Q9C0E4 238-339): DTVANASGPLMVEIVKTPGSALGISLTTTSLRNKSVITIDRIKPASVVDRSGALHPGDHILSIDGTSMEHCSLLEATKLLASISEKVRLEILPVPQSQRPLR

HTRA4, P83105 = target: T4, HTRA4, P83105
IL16_1, Q14005 = target: IL16_1, Q14005
Sequence of IL16_1, Q14005 (Q14005 210-306): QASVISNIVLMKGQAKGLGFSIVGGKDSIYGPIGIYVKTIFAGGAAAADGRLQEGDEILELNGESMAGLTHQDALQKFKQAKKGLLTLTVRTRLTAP

Inadl_10, Q8NI35 = target: Inadl_10, Q8NI35
Sequence of Inadl_10, Q8NI35 (Q8NI35 1673-1763): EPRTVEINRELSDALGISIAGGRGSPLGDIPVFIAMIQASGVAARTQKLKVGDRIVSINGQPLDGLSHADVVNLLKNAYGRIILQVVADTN

Inadl_8, Q8NI35 = target: Inadl_8, Q8NI35
Sequence of Inadl_8, Q8NI35 (Q8NI35 1425-1530): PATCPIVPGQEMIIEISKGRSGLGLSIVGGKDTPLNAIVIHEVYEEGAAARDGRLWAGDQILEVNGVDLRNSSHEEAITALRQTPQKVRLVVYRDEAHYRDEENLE

LIMK2, P53671 = target: LIMK2, P53671
Sequence of LIMK2, P53671 (P53671 143-248): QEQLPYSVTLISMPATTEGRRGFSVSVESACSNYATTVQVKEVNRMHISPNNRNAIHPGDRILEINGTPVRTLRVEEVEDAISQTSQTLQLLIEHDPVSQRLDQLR

LIN7C, Q9NUP9 = target: T5, LIN7C, Q9NUP9
MAGI2_2, Q86UL8 = target: MAGI2_2, Q86UL8
Sequence of MAGI2_2, Q86UL8 (Q86UL8 410-522): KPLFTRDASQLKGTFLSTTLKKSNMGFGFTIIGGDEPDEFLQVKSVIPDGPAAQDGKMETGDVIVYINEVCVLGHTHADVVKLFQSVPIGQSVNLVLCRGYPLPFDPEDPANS

MAGI2_5, Q86UL8 = target: MAGI2_5, Q86UL8
Sequence of MAGI2_5, Q86UL8 (Q86UL8 915-1017): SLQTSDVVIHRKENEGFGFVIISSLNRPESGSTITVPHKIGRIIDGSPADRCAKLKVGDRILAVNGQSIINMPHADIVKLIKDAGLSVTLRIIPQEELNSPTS

MAST2, Q6P0Q8 = target: MAST2, Q6P0Q8
Sequence of MAST2, Q6P0Q8 (Q6P0Q8 1099-1202): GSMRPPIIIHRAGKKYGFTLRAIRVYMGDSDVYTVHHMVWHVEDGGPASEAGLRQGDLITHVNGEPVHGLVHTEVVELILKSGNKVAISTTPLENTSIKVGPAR

NHERF4_1, Q86UT5-2 = target: NHERF4_1, Q86UT5-2
Sequence of NHERF4_1, Q86UT5-2 (Q86UT5 other isoform, or with tags, fused parts or gaps): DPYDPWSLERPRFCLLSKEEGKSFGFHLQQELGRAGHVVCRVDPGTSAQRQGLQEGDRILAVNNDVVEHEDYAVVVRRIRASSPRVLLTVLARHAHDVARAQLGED

NHERF4_4, Q86UT5 = target: NHERF4_4, Q86UT5
Sequence of NHERF4_4, Q86UT5 (Q86UT5 464-550): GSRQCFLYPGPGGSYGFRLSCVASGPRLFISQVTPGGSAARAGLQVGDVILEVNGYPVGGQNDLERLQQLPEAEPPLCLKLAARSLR

RAPGEF6, Q8TEU7 = target: T6, RAPGEF6, Q8TEU7
RHPN1, Q8TCX5 = target: T7, RHPN1, Q8TCX5
SNTA1, Q13424 = target: T8, SNTA1, Q13424
SNTB1, Q13884 = target: T9, SNTB1, Q13884
SNTG1, Q9NSN8 = target: T10, SNTG1, Q9NSN8
TJP2_1, Q9UDY2 = target: TJP2_1, Q9UDY2
Sequence of TJP2_1, Q9UDY2 (Q9UDY2 24-128): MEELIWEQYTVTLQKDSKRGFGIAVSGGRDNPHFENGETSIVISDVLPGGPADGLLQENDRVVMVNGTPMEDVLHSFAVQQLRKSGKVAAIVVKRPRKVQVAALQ

TX1BP3, O14907 = target: T11, TX1BP3, O14907

Binder | pKd (APBA1_1, Q02410) | pKd (ARHGEF12, Q9NZN5-2) | pKd (DLG2_3, Q15700) | pKd (DLG5_1, Q8TDM6) | pKd (DVL3, Q92997) | pKd (GRIP1_2, Q9Y3R0) | pKd (GRIP2_3, Q9C0E4) | pKd (HTRA4, P83105) | pKd (IL16_1, Q14005) | pKd (LIMK2, P53671) | pKd (LIN7C, Q9NUP9) | pKd (MAGI2_2, Q86UL8) | pKd (MAGI2_5, Q86UL8) | pKd (MAST2, Q6P0Q8) | pKd (NHERF4_1, Q86UT5-2) | pKd (NHERF4_4, Q86UT5) | pKd (RAPGEF6, Q8TEU7) | pKd (RHPN1, Q8TCX5) | pKd (SNTA1, Q13424) | pKd (SNTB1, Q13884) | further results
PRVKPQRSKV [PPP1R13L, Q8WUF5] | below the threshold | 3.54 | below the threshold | below the threshold | below the threshold | below the threshold | below the threshold | below the threshold | below the threshold | below the threshold | below the threshold | 3.79 | below the threshold | 3.82 | below the threshold | below the threshold | below the threshold | below the threshold | below the threshold | 3.65 | pKd (DLG1_2, Q12959): below the threshold; pKd (Inadl_10, Q8NI35): below the threshold; pKd (Inadl_8, Q8NI35): 4.35; pKd (SNTG1, Q9NSN8): below the threshold; pKd (TJP2_1, Q9UDY2): below the threshold; pKd (TX1BP3, O14907): 3.82
EMDRRPATVV [PLCB4, Q15147] | below the threshold | 4.53 | 3.86 | below the threshold | below the threshold | 3.72 | below the threshold | 3.6 | below the threshold | 3.52 | below the threshold | 4.31 | below the threshold | 3.89 | below the threshold | below the threshold | below the threshold | 3.74 | 4.08 | 4.71 | pKd (SNTG1, Q9NSN8): below the threshold; pKd (TJP2_1, Q9UDY2): below the threshold; pKd (TX1BP3, O14907): 3.73
SKPTRRETEV [HPV35-E6, P27228] | below the threshold | 4.06 | 5.31 | below the threshold | below the threshold | below the threshold | below the threshold | below the threshold | below the threshold | below the threshold | 3.76 | 4.93 | 4.18 | 5.09 | below the threshold | below the threshold | below the threshold | below the threshold | 4.85 | 4.68 | pKd (DLG1_2, Q12959): 5.64; pKd (Inadl_10, Q8NI35): below the threshold; pKd (Inadl_8, Q8NI35): below the threshold; pKd (SNTG1, Q9NSN8): 4.31; pKd (TJP2_1, Q9UDY2): below the threshold; pKd (TX1BP3, O14907): 4.93
